# Data as given in PMC6155056 (Science Advances, 2018).
# T1: CVA10 capsid protein VP3 (strain CVA10-FJ-01) (Coxsackievirus A10, strain CVA10-FJ-01 …, strain)
# T1 chain: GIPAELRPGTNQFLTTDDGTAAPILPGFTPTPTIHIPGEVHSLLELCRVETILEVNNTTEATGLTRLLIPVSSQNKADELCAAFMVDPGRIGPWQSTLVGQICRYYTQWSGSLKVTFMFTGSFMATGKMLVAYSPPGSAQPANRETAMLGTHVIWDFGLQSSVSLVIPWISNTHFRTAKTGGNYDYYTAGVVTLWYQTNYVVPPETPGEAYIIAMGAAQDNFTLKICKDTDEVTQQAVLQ
# T2: CVA10 mature virion (strain CVA10-FJ-01) (Coxsackievirus A10, strain CVA10-FJ-01 …, strain)
# T2 chain 1: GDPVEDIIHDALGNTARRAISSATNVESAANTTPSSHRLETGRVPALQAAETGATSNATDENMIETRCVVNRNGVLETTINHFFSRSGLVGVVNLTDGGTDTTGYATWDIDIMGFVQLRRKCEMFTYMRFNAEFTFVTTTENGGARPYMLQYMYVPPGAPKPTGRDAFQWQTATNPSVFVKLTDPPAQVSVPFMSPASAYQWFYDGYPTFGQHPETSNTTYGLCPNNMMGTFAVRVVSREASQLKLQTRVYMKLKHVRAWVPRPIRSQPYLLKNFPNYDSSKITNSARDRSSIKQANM
# T2 chain 2: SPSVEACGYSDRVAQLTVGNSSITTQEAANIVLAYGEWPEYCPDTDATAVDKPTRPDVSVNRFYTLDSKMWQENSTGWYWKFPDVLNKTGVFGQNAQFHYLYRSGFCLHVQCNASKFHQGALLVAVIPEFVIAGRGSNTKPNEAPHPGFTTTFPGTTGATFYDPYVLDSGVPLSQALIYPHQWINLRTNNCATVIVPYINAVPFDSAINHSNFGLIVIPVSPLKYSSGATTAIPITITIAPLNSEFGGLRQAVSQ
# T2 chain 3: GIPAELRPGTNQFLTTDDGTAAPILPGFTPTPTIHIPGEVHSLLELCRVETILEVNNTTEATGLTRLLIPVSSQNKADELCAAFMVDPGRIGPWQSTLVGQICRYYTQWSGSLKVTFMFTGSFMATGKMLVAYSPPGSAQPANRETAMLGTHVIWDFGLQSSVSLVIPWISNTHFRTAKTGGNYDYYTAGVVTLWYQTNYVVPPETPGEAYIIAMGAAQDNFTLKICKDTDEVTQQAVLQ
# T2 chain 4: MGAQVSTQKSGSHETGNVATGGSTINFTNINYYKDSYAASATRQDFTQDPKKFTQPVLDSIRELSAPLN
# T3: CVA10 procapsid (strain CVA10-FJ-01) (Coxsackievirus A10, strain CVA10-FJ-01 …, strain)
# T3 chain 1: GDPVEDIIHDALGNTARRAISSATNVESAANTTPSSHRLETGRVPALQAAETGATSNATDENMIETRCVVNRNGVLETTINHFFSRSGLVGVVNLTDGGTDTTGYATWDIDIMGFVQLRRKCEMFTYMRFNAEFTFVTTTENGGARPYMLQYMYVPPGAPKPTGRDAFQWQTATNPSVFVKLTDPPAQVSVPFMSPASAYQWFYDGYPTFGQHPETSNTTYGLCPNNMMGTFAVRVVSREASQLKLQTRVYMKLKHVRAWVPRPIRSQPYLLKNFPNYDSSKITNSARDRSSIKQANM
# T3 chain 2: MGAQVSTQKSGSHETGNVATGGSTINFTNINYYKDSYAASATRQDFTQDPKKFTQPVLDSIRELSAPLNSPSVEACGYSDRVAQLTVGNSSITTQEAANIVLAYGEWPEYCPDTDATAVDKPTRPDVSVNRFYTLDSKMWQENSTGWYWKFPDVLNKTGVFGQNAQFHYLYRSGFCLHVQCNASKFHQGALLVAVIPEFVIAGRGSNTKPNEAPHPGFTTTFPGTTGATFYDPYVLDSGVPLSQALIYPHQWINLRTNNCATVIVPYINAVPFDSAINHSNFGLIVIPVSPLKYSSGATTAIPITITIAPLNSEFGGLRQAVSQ
# T3 chain 3: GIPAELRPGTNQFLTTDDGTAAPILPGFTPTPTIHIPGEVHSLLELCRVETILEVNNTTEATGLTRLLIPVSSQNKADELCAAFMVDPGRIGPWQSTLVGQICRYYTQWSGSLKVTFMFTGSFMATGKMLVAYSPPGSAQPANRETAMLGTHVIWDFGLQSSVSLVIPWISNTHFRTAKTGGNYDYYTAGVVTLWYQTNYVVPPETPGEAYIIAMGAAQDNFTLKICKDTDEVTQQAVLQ
# T4: CVA10 capsid protein VP1 (strain CVA10-FJ-01) (Coxsackievirus A10, strain CVA10-FJ-01 …, strain)
# T4 chain: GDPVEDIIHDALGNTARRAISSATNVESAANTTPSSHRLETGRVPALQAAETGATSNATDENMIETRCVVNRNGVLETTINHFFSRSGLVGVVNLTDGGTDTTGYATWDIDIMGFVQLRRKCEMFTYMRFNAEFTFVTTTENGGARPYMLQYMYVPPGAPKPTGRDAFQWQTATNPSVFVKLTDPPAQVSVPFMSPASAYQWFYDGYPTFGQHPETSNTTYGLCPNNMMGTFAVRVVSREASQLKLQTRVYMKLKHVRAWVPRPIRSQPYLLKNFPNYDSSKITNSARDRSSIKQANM
# T5: CVA10 A-particle (strain CVA10-FJ-01) (Coxsackievirus A10, strain CVA10-FJ-01 …, strain)
# T5 chain 1: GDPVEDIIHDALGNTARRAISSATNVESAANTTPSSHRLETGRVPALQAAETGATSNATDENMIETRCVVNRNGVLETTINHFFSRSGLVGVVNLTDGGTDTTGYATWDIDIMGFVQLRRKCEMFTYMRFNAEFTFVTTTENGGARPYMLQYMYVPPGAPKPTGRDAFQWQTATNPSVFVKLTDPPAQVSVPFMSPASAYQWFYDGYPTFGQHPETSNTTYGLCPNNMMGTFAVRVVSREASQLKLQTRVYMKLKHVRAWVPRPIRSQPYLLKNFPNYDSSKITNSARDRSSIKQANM
# T5 chain 2: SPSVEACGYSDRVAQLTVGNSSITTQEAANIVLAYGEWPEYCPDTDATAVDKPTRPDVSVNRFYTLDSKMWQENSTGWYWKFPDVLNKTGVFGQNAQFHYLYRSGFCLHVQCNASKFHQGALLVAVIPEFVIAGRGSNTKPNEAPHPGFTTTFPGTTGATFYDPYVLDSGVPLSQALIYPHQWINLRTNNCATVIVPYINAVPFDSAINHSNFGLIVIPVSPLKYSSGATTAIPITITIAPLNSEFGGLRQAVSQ
# T5 chain 3: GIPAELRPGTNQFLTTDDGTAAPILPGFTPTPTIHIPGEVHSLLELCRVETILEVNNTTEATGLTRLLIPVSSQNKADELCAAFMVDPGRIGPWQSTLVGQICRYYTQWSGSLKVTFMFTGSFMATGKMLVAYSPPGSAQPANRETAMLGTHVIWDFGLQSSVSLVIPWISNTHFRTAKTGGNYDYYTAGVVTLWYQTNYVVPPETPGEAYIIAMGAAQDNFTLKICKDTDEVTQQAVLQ
# T6: CVA10 capsid protein VP2 (strain CVA10-FJ-01) (Coxsackievirus A10, strain CVA10-FJ-01 …, strain)
# T6 chain: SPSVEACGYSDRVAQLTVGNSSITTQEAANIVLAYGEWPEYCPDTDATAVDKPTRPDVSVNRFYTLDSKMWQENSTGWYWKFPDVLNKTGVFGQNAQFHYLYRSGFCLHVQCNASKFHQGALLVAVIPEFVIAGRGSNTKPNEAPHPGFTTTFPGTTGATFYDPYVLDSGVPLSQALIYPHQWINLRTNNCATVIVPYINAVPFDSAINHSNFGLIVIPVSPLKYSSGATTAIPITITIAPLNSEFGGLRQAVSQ
# Legend:
# Assay in all cases: cryo-EM structure
# [1] = target: T1, CVA10 capsid protein VP3 (strain …)
# [2] = target: T2, CVA10 mature virion (strain CVA10-FJ-01)
# [3] = target: T3, CVA10 procapsid (strain CVA10-FJ-01)
# [4] = target: T4, CVA10 capsid protein VP1 (strain …)
# [5] = target: T5, CVA10 A-particle (strain CVA10-FJ-01)
# [6] = target: T6, CVA10 capsid protein VP2 (strain …)
binder,measurement,setting,value
"Fab 2G8 (Fab, V domains shown) VH: EVQLQQSGPDLVKTGASVRVSCRASGYSFTSYYIHWVRLNHGKSLEWIGYINCYNGDITYNQKFKGKASFTLDTSSSTAYMEFNRLTSEDSAVYYCTRERYGTPHYHFDVWGAGP VL: DVLMTQTPLSLPVSLGHQASISCRSSQSIVHSNGNTYLEWYLQKPGQSPKLLIYTVSNRFSGVPDRFSGSGSGTDFTLRITSVEAEDLGVYYCFQGSHIPYTFGGGTKLEIK",binding result,[1],binds
same,stoichiometry N,[2],60 copies per particle
same,stoichiometry N,[3],60 copies per particle
same,binding result,[4],binds
same,stoichiometry N,[5],60 copies per particle
same,binding result,[6],binds
